Measured values published in the Human Domainome abundance scans (Beltran et al. 2025).
± gives the uncertainty stated by the source.

B1: Membrane-associated guanylate kinase, WW and PDZ domain-containing protein 2, residues 601 to 682; numbered along this chain, Q86UL8 (parent)
chain: AELMTLTIVKGAQGFGFTIADSPTGQRVKQILDIQGCPGLCEGDLIVEINQQNVQNLSHTEVVDILKDCPIGSETSLIIHRG

Variants of: B1
Assay: abundance fitness (aPCA) (normalised: wild type 0, dead -1); higher = more abundant; growth selection in yeast, the domain comes from the species named
Conditions: Homo sapiens

In order of rising abundance fitness:
1. K10D  -1.29 ± 0.19
2. V62D  -0.985 ± 0.35
3. I49H  -0.964 ± 0.23
4. L77K  -0.892 ± 0.31
5. F17H  -0.881 ± 0.16
6. D44H  -0.79 ± 0.31
7. I79Q  -0.73 ± 0.27
8. V28Q  -0.718 ± 0.38
9. D44Y  -0.71 ± 0.2
10. S76H  -0.668 ± 0.29
11. R81I  -0.668 ± 0.25
12. L66S  -0.63 ± 0.2
13. N50V  -0.626 ± 0.17
14. D44S  -0.618 ± 0.12
15. R27C  -0.589 ± 0.47
16. I46T  -0.587 ± 0.27
17. V28T  -0.538 ± 0.34
18. I79K  -0.534 ± 0.16
19. E74T  -0.422 ± 0.38
20. G25R  -0.356 ± 0.04
21. S58F  -0.29 ± 0.16
22. L57M  -0.283 ± 0.14
23. F15R  -0.266 ± 0.034
24. L40M  -0.254 ± 0.17
25. R81V  -0.252 ± 0.11
26. K10L  -0.239 ± 0.035
27. L66V  -0.235 ± 0.13
28. P70A  -0.227 ± 0.099
29. I78T  -0.224 ± 0.15
30. T5F  -0.217 ± 0.097
31. V28L  -0.215 ± 0.095
32. G39W  -0.211 ± 0.25
33. C37K  -0.208 ± 0.11
34. N53W  -0.201 ± 0.049
35. G39M  -0.192 ± 0.16
36. G72N  -0.189 ± 0.34
37. G43C  -0.187 ± 0.2
38. I78A  -0.179 ± 0.12
39. C69Y  -0.174 ± 0.12
40. I49A  -0.173 ± 0.078
41. P23I  -0.17 ± 0.097
42. T5I  -0.169 ± 0.12
43. G39R  -0.167 ± 0.16
44. C37R  -0.163 ± 0.08
45. C37M  -0.16 ± 0.15
46. P23Y  -0.16 ± 0.13
47. G16Y  -0.155 ± 0.053
48. D68T  -0.153 ± 0.095
49. E74G  -0.153 ± 0.1
50. T75Y  -0.151 ± 0.12
51. I65E  -0.146 ± 0.052
52. G11C  -0.146 ± 0.068
53. G11H  -0.142 ± 0.13
54. F15E  -0.141 ± 0.044
55. K10H  -0.14 ± 0.065
56. E61K  -0.137 ± 0.17
57. M4C  -0.136 ± 0.041
58. S58T  -0.135 ± 0.095
59. I78W  -0.129 ± 0.089
60. D21A  -0.126 ± 0.087
61. I78K  -0.122 ± 0.1
62. T7Y  -0.121 ± 0.075
63. E48K  -0.117 ± 0.11
64. T75N  -0.115 ± 0.19
65. C37Q  -0.113 ± 0.16
66. Q26I  -0.111 ± 0.12
67. Q55D  -0.111 ± 0.16
68. K10A  -0.108 ± 0.038
69. R27G  -0.107 ± 0.1
70. G11L  -0.104 ± 0.039
71. M4A  -0.1 ± 0.034
72. L6K  -0.098 ± 0.044
73. P38V  -0.097 ± 0.088
74. I49C  -0.094 ± 0.11
75. K29C  -0.091 ± 0.13
76. P38W  -0.09 ± 0.15
77. T75D  -0.09 ± 0.21
78. D33E  -0.089 ± 0.054
79. V54L  -0.089 ± 0.029
80. R27H  -0.089 ± 0.21
81. D33H  -0.088 ± 0.071
82. V63Q  -0.087 ± 0.23
83. Q13F  -0.084 ± 0.043
84. T24V  -0.08 ± 0.04
85. A12F  -0.075 ± 0.072
86. I78G  -0.075 ± 0.068
87. P70F  -0.074 ± 0.12
88. K10V  -0.073 ± 0.034
89. V9W  -0.072 ± 0.037
90. L77W  -0.072 ± 0.075
91. Q26S  -0.071 ± 0.05
92. L32R  -0.069 ± 0.082
93. N50R  -0.068 ± 0.057
94. Q13V  -0.067 ± 0.036
95. I49F  -0.065 ± 0.24
96. I34M  -0.061 ± 0.066
97. G82P  -0.058 ± 0.12
98. D64Q  -0.057 ± 0.11
99. G14Q  -0.052 ± 0.051
100. E61L  -0.046 ± 0.071
101. G16H  -0.044 ± 0.058
102. V9F  -0.044 ± 0.064
103. G36C  -0.044 ± 0.09
104. M4V  -0.039 ± 0.031
105. Q26C  -0.039 ± 0.13
106. T60R  -0.038 ± 0.065
107. N56R  -0.036 ± 0.052
108. S76V  -0.031 ± 0.063
109. L77V  -0.03 ± 0.062
110. C69V  -0.03 ± 0.065
111. Q55E  -0.029 ± 0.065
112. Q52H  -0.029 ± 0.043
113. N53Q  -0.025 ± 0.042
114. L3D  -0.024 ± 0.056
115. G11S  -0.023 ± 0.041
116. D33T  -0.02 ± 0.059
117. T75F  -0.02 ± 0.16
118. G14T  -0.02 ± 0.037
119. Q51S  -0.018 ± 0.038
120. T24P  -0.017 ± 0.041
121. Q13R  -0.017 ± 0.033
122. E42T  -0.015 ± 0.061
123. T18S  -0.013 ± 0.038
124. I8Y  -0.012 ± 0.068
125. V9T  -0.011 ± 0.052
126. Q55M  -0.01 ± 0.16
127. Q52R  -0.007 ± 0.037
128. C41L  -0.005 ± 0.037
129. P38K  -0.001 ± 0.17
130. A20S  0.003 ± 0.1
131. N56G  0.003 ± 0.079
132. G72R  0.006 ± 0.065
133. P70E  0.007 ± 0.082
134. T24R  0.007 ± 0.038
135. T18I  0.008 ± 0.065
136. C41E  0.01 ± 0.044
137. Q52M  0.01 ± 0.045
138. I31L  0.011 ± 0.083
139. C37S  0.012 ± 0.18
140. L3Q  0.014 ± 0.037
141. R81G  0.017 ± 0.067
142. I78S  0.019 ± 0.098
143. D33Q  0.024 ± 0.076
144. S73H  0.024 ± 0.15
145. D68M  0.027 ± 0.15
146. H80R  0.027 ± 0.063
147. H80T  0.028 ± 0.079
148. S73F  0.029 ± 0.19
149. S22G  0.03 ± 0.061
150. I34N  0.034 ± 0.13
151. C41D  0.036 ± 0.066
152. K29S  0.039 ± 0.2
153. I8T  0.042 ± 0.051
154. Q52K  0.049 ± 0.048
155. K67G  0.052 ± 0.093
156. S58C  0.052 ± 0.11
157. L66F  0.053 ± 0.18
158. S22K  0.062 ± 0.2
159. Q26A  0.063 ± 0.047
160. Q30L  0.066 ± 0.1
161. G43Q  0.068 ± 0.14
162. D68Q  0.07 ± 0.11
163. K29E  0.084 ± 0.15
164. E48H  0.091 ± 0.43
165. K29D  0.108 ± 0.28
166. H59E  0.126 ± 0.15
167. D64H  0.195 ± 0.3
